Results on 167 variants are retold here after the RNAGym collection of RNA variant scans (doi:10.7554/elife.80360).

B1: CPEB3 Ribozyme (parent)
chain: GGGGGCCACAGCAGAAGCGUUCACGUCGCGGCCCCUGUCAGAUUCUGGUGAAUCUGCGAAUUCUGCUGU

This series covers variants of B1. The series is described as follows: self-cleavage, relative activity (ratio to wild type); higher = more cleavage; co-transcriptional.
Turning to C12G C57G, the self-cleavage turned out to be 0.427.
C12G C57A: the self-cleavage stood at 0.25.
As for C12G C57U, the figure is 0.336.
As for C12A U67A, the figure is 0.671; as for C12A U67G, 0.791.
The same measure for C12A U67C: 0.812; for C12G U36A: 0.228.
For the variant C12G U36G, the self-cleavage is 0.294.
The same measure for C12A U49A: 0.893; for C12A U49G: 0.846; for C12A U43A: 0.259.
The same measure for C12A U43C: 0.453.
The same measure for C12A U43G: 0.207.
As to C12G G17C, the self-cleavage was found to be 0.0979.
The same measure for C12G G17A: 0.148; for C12G U44C: 0.488; for C12G U44G: 0.868.
C12G A51G: the self-cleavage was 0.887.
As for C12G A51C, the figure is 0.79; as for C12U A40G, 0.902.
As for C12U A40C, the figure is 0.358; as for C12G C54U, 0.828; as for C12G C54A, 0.416.
The same measure for C12U A15G: 0.999; for C12U A15U: 0.502.
As to C12U A13C, the self-cleavage was 0.629.
C12U A13G: the self-cleavage stood at 0.793.
As for C12U A13U, the figure is 0.583; as for C12A U53G, 0.335.
The same measure for C12A U53A: 0.354.
The same measure for C12G C35U: 0.83; for C12G A42U: 0.61.
As for C12G A42G, the self-cleavage was 0.649.
As for C12G A42C, the figure is 0.493; as for C12G U67G, 0.797.
As to C12G U67A, the self-cleavage is 0.8.
The same measure for C12G U69A: 0.881.
As for C12G U69G, the figure is 1.04; as for C12G A60G, 0.451; as for C12G A60C, 0.277.
As for C12G A16G, the figure is 0.578; as for C12G U49G, 0.857; as for C12G C18G, 0.0782.
With C12G C18A, the self-cleavage was found to be 0.185.
With C12G C18U, the self-cleavage worked out at 0.178.
The same measure for C12A U64G: 0.674.
With C12A U55A, the self-cleavage is 0.23.
As for C12A U55G, the figure is 0.172; as for C12G G48U, 0.925; as for C12G G48A, 0.953.
As for C12A U21C, the figure is 0.464; as for C12A U21A, 0.642.
On to C12G G28C, for which the self-cleavage was 0.157.
The same measure for C12G G28A: 0.163.
As for C12G G31C, the figure is 0.217.
As for C12G G31A, the figure is 0.334; as for C12G G31U, 0.206; as for C12G G68U, 0.917.
On to C12G G58U, for which the self-cleavage is 0.945.
With C12G G58A, the self-cleavage came out at 0.852.
As for C12G U46C, the figure is 0.832.
As for C12G U46G, the figure is 0.862.
The same measure for C12G U46A: 0.91; for C12G U53G: 0.654.
For C12G U53A, the self-cleavage is 0.634.
As to C12G U53C, the self-cleavage is 0.408.
The same measure for C12G U62G: 0.338.
The same measure for C12G U26G: 0.729; for C12G U26C: 0.74; for C12G U26A: 0.695.
The same measure for C12G C33A: 0.68.
With C12G C33G, the self-cleavage amounted to 0.316.
As for C12G U43A, the figure is 0.519; as for C12G U43C, 0.706; as for C12G A13C, 0.26.
The same measure for C12G A13U: 0.129; for C12U A59U: 0.822; for C12U A59C: 0.623.
Regarding C12U A59G, the self-cleavage was found to be 0.968.
The same measure for C12G A40U: 0.404; for C12G A40G: 0.672.
As for C12U A16C, the figure is 0.134; as for C12U A16G, 0.814; as for C12U A16U, 0.655.
As for C12G C45G, the figure is 0.819; as for C12G C45U, 0.868.
Consider C12G C45A, for which the self-cleavage came to 0.728.
As for C12A U44G, the figure is 0.55; as for C12A U44A, 0.349; as for C12A U44C, 0.343.
As for C12G A15U, the figure is 0.171.
The same measure for C12G A15C: 0.301; for C12G A15G: 0.613; for C12G C29U: 0.137.
For C12G C29A, the self-cleavage came to 0.213.
C12G C63A: the self-cleavage came out at 0.218.
As for C12G C63G, the figure is 0.339.
The same measure for C12U A52G: 1.01; for C12U A52C: 0.903.
The same measure for C12A U69C: 0.981; for C12A U69A: 0.886.
Take C12G U55G: the self-cleavage came out at 0.284.
As to C12G U55C, the self-cleavage was determined as 0.558.
For the variant C12G U55A, the self-cleavage was 0.403.
As for C12G A59G, the self-cleavage was found to be 0.802.
With C12G A59C, the self-cleavage came out at 0.339.
As for C12G U61A, the figure is 0.537; as for C12G U61G, 0.592; as for C12G C34A, 0.699.
For C12G C34U, the self-cleavage stood at 0.89.
In the case of C12U A60C, the self-cleavage amounted to 0.299.
As for C12U A51U, the figure is 0.991; as for C12U A51G, 0.996; as for C12G G37A, 0.174.
Turning to C12A U38G, the self-cleavage was 0.235.
Turning to C12U A42U, the self-cleavage was determined as 0.91.
The same measure for C12U A42G: 0.863.
Consider C12U A42C, for which the self-cleavage was 0.885.
As for C12G U38G, the figure is 0.126; as for C12G U38A, 0.739.
The same measure for C12G C39G: 0.455.
The same measure for C12G C39U: 0.533; for C12G G30C: 0.367; for C12A U26C: 0.5.
Take C12G G65U: the self-cleavage came to 0.952.
The same measure for C12G G65C: 0.934; for C12G G65A: 0.932; for C12A U20G: 0.18.
As for C12A U20A, the figure is 0.0992; as for C12A U20C, 0.132.
Regarding C12G G47A, the self-cleavage was found to be 0.912.
As for C12G G47U, the figure is 0.965.
As for C12G G47C, the figure is 0.888; as for C12A U62A, 0.248; as for C12A U62G, 0.312.
Turning to C12G A52C, the self-cleavage was 0.792.
The same measure for C12G A52U: 0.852; for C12G A52G: 0.94; for C12A U36C: 0.441.
As for C12G G56C, the figure is 0.345; as for C12A U46G, 0.628; as for C12A U46C, 0.609.
The same measure for C12G G50A: 0.917; for C12G G50C: 0.75; for C12G G50U: 0.84.
Take C12G C66G: the self-cleavage was found to be 0.513.
As for C12G C66A, the figure is 0.487; as for C12G C66U, 0.69.
As for C12G U64A, the self-cleavage came to 0.508.
The same measure for C12G G41A: 0.353.
The same measure for C12G U20G: 0.125; for C12G U20A: 0.228.
As for C12G C22U, the figure is 0.149; as for C12U A23G, 0.946.
As to C12U A23U, the self-cleavage turned out to be 0.963.
As for C12A U61A, the figure is 0.312.
The same measure for C12A U61G: 0.316; for C12A U61C: 0.246; for C12G C27U: 0.0756.
As for C12G C27A, the figure is 0.216; as for C12G U21G, 0.364; as for C12G U21A, 0.845.
On to C12G G25U, for which the self-cleavage was found to be 0.101.
The same measure for C12G G25A: 0.161.
As for C12G C32A, the figure is 0.224; as for C12G C32U, 0.834.
The same measure for C12G C32G: 0.334.
